Broadly, the Kd is the constant that tells how readily two partners part at equilibrium.

The labels stand for the following.
B2: N99A SufS (enzyme, E. coli)
chain: MIFSVDKVRADFPVLSREVNGLPLAYLDSAASAQKPSQVIDAEAEFYRHGYAAVHRGIHTLSAQATEKMENVRKRASLFINARSAEELVFVRGTTEGIALVANSWGNSNVRAGDNIIISQMEHHANIVPWQMLCARVGAELRVIPLNPDGTLQLETLPTLFDEKTRLLAITHVSNVLGTENPLAEMITLAHQHGAKVLVDGAQAVMHHPVDVQALDCDFYVFSGHKLYGPTGIGILYVKEALLQEMPPWEGGGSMIATVSLSEGTTWTKAPWRFEAGTPNTGGIIGLGAALEYVSALGLNNIAEYEQNLMHYALSQLESVPDLTLYGPQNRLGVIAFNLGKHHAYDVGSFLDNYGIAVRTGHHCAMPLMAYYNVPAMCRASLAMYNTHEEVDRLVTGLQRIHRLLG
notes: SufS cysteine desulfurase, E. coli, UniProt P77444, with N99A; gene in pET-21(a); Carries the PLP cofactor; No tag named; Dimer in the crystal structure; also called SufS N99A; source: E. coli BL21(DE3)Δsuf, pET21, purified (Q-XL, Phenyl HP, Superdex 200)
B3: N99D SufS (enzyme, E. coli)
chain: MIFSVDKVRADFPVLSREVNGLPLAYLDSAASAQKPSQVIDAEAEFYRHGYAAVHRGIHTLSAQATEKMENVRKRASLFINARSAEELVFVRGTTEGIDLVANSWGNSNVRAGDNIIISQMEHHANIVPWQMLCARVGAELRVIPLNPDGTLQLETLPTLFDEKTRLLAITHVSNVLGTENPLAEMITLAHQHGAKVLVDGAQAVMHHPVDVQALDCDFYVFSGHKLYGPTGIGILYVKEALLQEMPPWEGGGSMIATVSLSEGTTWTKAPWRFEAGTPNTGGIIGLGAALEYVSALGLNNIAEYEQNLMHYALSQLESVPDLTLYGPQNRLGVIAFNLGKHHAYDVGSFLDNYGIAVRTGHHCAMPLMAYYNVPAMCRASLAMYNTHEEVDRLVTGLQRIHRLLG
notes: SufS cysteine desulfurase, E. coli, UniProt P77444, with N99D; gene in pET-21(a); Carries the PLP cofactor; No tag named; Dimer in the crystal structure; residues 248 to 268 have no electron density; also called SufS N99D; source: E. coli BL21(DE3)Δsuf, pET21, purified (Q-XL, Phenyl HP, Superdex 200)

The target in one data set is SufS (Escherichia coli, UniProt P77444). The settings on record: no SufE, 500 μM cysteine, with and without 2 mM TCEP, pH 8.0, 25 °C.
For the next data set, the target named is SufE (Escherichia coli) (UniProt P76194). The settings on record: cited from earlier work.
The target in a further data set is T1, D346R SufS (E. coli, UniProt P77444 1-406, D346R).
T1 construct: SufS cysteine desulfurase, E. coli, UniProt P77444, with D346R; gene in pET-21(a); No tag named; nothing is said of the oligomeric state of this variant; source: E. coli BL21(DE3)Δsuf, pET21, purified (Q-XL, Phenyl HP, Superdex 200)
T1 sequence: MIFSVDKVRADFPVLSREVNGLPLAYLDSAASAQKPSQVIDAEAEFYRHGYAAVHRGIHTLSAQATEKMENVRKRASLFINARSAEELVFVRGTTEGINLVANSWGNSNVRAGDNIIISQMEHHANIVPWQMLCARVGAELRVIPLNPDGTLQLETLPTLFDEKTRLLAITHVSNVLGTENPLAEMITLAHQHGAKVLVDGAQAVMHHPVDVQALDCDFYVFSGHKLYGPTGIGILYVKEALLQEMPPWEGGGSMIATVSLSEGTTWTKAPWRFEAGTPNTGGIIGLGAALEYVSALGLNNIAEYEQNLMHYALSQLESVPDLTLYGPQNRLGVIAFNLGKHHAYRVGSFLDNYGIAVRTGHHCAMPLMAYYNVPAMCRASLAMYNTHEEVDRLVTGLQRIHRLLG
Kind of data set: fluorescence polarisation; SufS (0.2-40 μM) titrated against 100 nM BODIPY-labelled C51A/E107C SufE; no cysteine; 50 mM MOPS pH 8, 150 mM NaCl, 0.1 mg/ml BSA; 30 min at room temperature; black 96-well plates; fit to a single-affinity site (Equation 3). The settings on record: both partners purified. (Fluorescence polarisation rises when a labelled molecule tumbles more slowly, as on binding a larger partner.)

For data set [1], the target named is B2. Kind of data set: fluorescence polarisation; as without cysteine, but in the presence of 500 μM cysteine: SufS titrated against 100 nM BODIPY-labelled C51A/E107C SufE; 50 mM MOPS pH 8, 150 mM NaCl, 0.1 mg/ml BSA; room temperature. The settings on record: both partners purified.
Data set [2] addresses B3. The description is as above. The settings on record: both partners purified.
In data set [3] the target is T2, SufS cysteine desulfurase, wild type (E. coli, UniProt P77444 1-406).
T2 construct: SufS cysteine desulfurase, E. coli, UniProt P77444; gene in pET-21(a); PLP-dependent enzyme; as purified it carries the pyridoxal-5'-phosphate cofactor (internal aldimine); also called WT SufS; wt SufS; source: E. coli BL21(DE3)Δsuf, pET21, purified (Q-XL, Phenyl HP, Superdex 200)
T2 sequence: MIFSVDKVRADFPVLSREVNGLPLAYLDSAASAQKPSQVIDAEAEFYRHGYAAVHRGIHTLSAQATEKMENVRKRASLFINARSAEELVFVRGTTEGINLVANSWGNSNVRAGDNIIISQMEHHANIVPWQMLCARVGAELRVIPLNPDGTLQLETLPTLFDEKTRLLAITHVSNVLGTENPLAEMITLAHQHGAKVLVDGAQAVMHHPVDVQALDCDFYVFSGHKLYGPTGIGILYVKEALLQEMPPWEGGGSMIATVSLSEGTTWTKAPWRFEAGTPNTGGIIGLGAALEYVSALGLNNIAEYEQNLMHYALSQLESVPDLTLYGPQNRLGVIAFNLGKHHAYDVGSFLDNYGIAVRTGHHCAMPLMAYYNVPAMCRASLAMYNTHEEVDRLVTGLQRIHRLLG
Described as above. The settings on record: both partners purified.

The target of data set [4] is B2. Put plainly: fluorescence polarisation; SufS (0.2-40 μM) titrated against 100 nM BODIPY-labelled C51A/E107C SufE; no cysteine; 50 mM MOPS pH 8, 150 mM NaCl, 0.1 mg/ml BSA; 30 min at room temperature; black 96-well plates; fit to a single-affinity site (Equation 3). The settings on record: both partners purified.
Data set [5] deals with B3. Described as above. The settings on record: both partners purified.
Data set [6] has as its target T2, SufS cysteine desulfurase, wild type. The description is as above. The settings on record: both partners purified.
Data set [7] concerns the molecule itself. Put plainly: crystal structure; sitting drop vapor diffusion at 20 °C, 4 to 4.5 M NaCl, 100 mM MES pH 6.5; SufS variant alone, dimer.

Regarding `N[C@@H](CS)C(=O)O` [cysteine], the “alanine production plate-reader assay; UV-visible cysteine-PLP intermediates” value on SufS is on record as “WT SufS is also capable of producing alanine”.

As for SufS (from UniProt P77444), the Kd with SufE (Escherichia coli) was 0.5 µM.

B1: BODIPY-labelled C51A/E107C SufE (natural protein, E. coli)
chain: MALLPDKEKLLRNFLRCANWEEKYLYIIELGQRLPELRDEDRSPQNSIQGAQSQVWIVMRQNAQGIIELQGDSDAAIVKGLIAVVFILYDQMTPQDIVNFDVRPWFCKMALTQHLTPSRSQGLEAMIRAIRAKAAALS
modifications: BODIPY FL maleimide on the cysteine at 107 (E107C); labelling efficiency between 60 and 80%
notes: SufE transpersulfurase, E. coli, UniProt P76194, with C51A and E107C; gene in pET-21(a); No tag named; also called labeled C51A/E107C SufE; BODPIY-C51A/E107C SufE; source: E. coli BL21(DE3), pET21, purified (Q-XL, Superdex 200), labelled with BODIPY FL maleimide
Regarding B1, the dissociation constant (Kd) was > 40 µM with D346R SufS; 3.1 ± 0.6 µM with N99A SufS [1]; 3.3 ± 0.7 µM with N99D SufS [2]; 0.6 ± 0.2 µM in data set [3]; 6.2 ± 1.8 µM with N99A SufS [4]; 9.9 ± 3 µM with N99D SufS [5]. In data set [6], this molecule showed a dissociation constant Kd of 5.2 µM.

For the molecule B2, the binding result in data set [7] was “binds”.

Turning to B3, the binding result in data set [7] was “binds”.

The values are drawn from PMC10011822 (The Journal of Biological Chemistry, 2023).
